Test results taken from the supplement of paper PMC10126150.
± gives the standard deviation of the averaged measurements.

test system: ATP; assay: switch fluorescence ratio, 500 uM ATP over buffer (Cy3 cluster intensity, sum of 5 cycles each) (fold (ratio)); higher = stronger signal-on switching upon ATP binding; sequences stand for … in TCGTCGGCAGCGTCAGATGTGTATAAGAGACAGTTTTTTTTTTTTTTTTTTTTTTTTT…TC; conditions: aptamer strand: ATP DNA aptamer (quencher-CACCTGGGGGAGTATTGCGGAGGAAGG + anchor), 100 nM annealed; ATP concentration: 500 uM
In short: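 Cy3-labelled switching-strand clusters on a modified Illumina MiSeq flow-cell were annealed to 100 nM quencher-labelled ATP aptamer, imaged in selection buffer, then imaged after 15 min with 500 uM ATP at 22 °C. Five buffer/ATP cycles ran, with NaOH stripping and re-annealing between them. The fluorescence ratio is summed target-cycle over summed buffer-cycle Cy3 intensity per cluster, averaged per switch-domain sequence. Clusters outside 100-1000 RFU were excluded.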
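Also: ATP exposure 15 min at 22 °C before imaging.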

Sequence	switch fluorescence ratio
TGTTTTAAAT	0.978 ± 0.03
TGTTTTAAGG	1.009 ± 0.0081
TGTTTTAGGT	1.02 ± 0.029
TGTTTTAGT	0.992 ± 0.024
TGTTTTATCT	0.9857 ± 0.0073
TGTTTTCCCT	0.979 ± 0.053
TGTTTTGCGT	1.01 ± 0.037
TGTTTTGGGA	0.997 ± 0.021
TGTTTTGGGG	0.998 ± 0.035
TGTTTTTCTA	1 ± 0.044
TGTTTTTCTG	0.968 ± 0.039
TGTTTTTGCT	0.969 ± 0.033
TGTTTTTTAG	1.01 ± 0.024
TTAAAAAAAA	1.16 ± 0.35
TTAAAAACTG	0.992 ± 0.033
TTAAAACGGT	1.21 ± 0.31
TTAAAAGCGT	1.02 ± 0.013
TTAAAAGGCT	0.9974 ± 0.0012
TTAAAAGTAG	1 ± 0.058
TTAAAAGTTT	0.994 ± 0.043
TTAAAATCGA	0.972 ± 0.072
TTAAAATCTG	1.02 ± 0.027
TTAAAATGCT	0.978 ± 0.011
TTAAAATGGT	1 ± 0.052
TTAAAATGTT	1.0072 ± 0.00057

Sequence	switch fluorescence ratio
TTAAAATTGC	1.08 ± 0.064
TTAAAATTTT	1.06 ± 0.06
TTAAACCGGT	1.03 ± 0.037
TTAAACGCGG	1.05 ± 0.066
TTAAACGCTT	1.02 ± 0.043
TTAAACGGGA	1.03 ± 0.024
TTAAACGTTT	1.02 ± 0.021
TTAAAGCCGG	0.966 ± 0.061
TTAAAGCCTT	1.03 ± 0.053
TTAAAGCGCG	1.04 ± 0.024
TTAAAGGCCC	1.0667 ± 4.6e-05
TTAAATCTCG	0.989 ± 0.046
TTAAATGGCA	0.993 ± 0.033
TTAAATTCGA	0.966 ± 0.036
TTAAATTGAT	0.987 ± 0.04
TTAAATTTT	1.01 ± 0.024
TTAAATTTTG	1.015 ± 0.0084
TTAAATTTTT	1.01 ± 0.041
TTAACAGTGG	0.989 ± 0.032
TTAACAGTTT	1.001 ± 0.0067
TTAACCGTTT	1.09 ± 0.08
TTAACCTTTT	1.36 ± 0.58
TTAACGCCGC	1.13 ± 0.069
TTAACGCGGA	1.03 ± 0.011
TTAACGGCGC	1.04 ± 0.081

Sequence	switch fluorescence ratio
TTAACGGGGT	1.04 ± 0.073
TTAACGGTAG	0.983 ± 0.038
TTAACGGTTT	0.988 ± 0.013
TTAACTCGGA	0.996 ± 0.056
TTAACTGGAA	0.978 ± 0.031
TTAACTTGTG	0.986 ± 0.031
TTAAGAGACG	1.06 ± 0.07
TTAAGATGCT	0.997 ± 0.036
TTAAGATGGT	0.983 ± 0.029
TTAAGCATGT	1.01 ± 0.017
TTAAGCCTTT	1.02 ± 0.034
TTAAGCGAAG	0.953 ± 0.029
TTAAGCGGAG	1.0092 ± 0.00077
TTAAGGATA	1.01 ± 0.036
TTAAGGCAAA	1.03 ± 0.019
TTAAGGCATT	1.06 ± 0.03
TTAAGGCTTA	1.01 ± 0.044
TTAAGGGGAC	1.04 ± 0.037
TTAAGGGGAT	1 ± 0.032
TTAAGGGGGA	1.01 ± 0.025
TTAAGGGGGT	1.03 ± 0.08
TTAAGGTTGG	0.993 ± 0.031
TTAAGTATTG	0.9956 ± 0.0079
TTAAGTGTGA	0.982 ± 0.013
TTAAGTTAGG	1.02 ± 0.012

Sequence	switch fluorescence ratio
TTAAGTTGTT	0.965 ± 0.016
TTAATAACTT	1.01 ± 0.019
TTAATAATAA	1 ± 0.034
TTAATACTTG	1.03 ± 0.018
TTAATAGGG	1 ± 0.022
TTAATAGGTG	1.14 ± 0.015
TTAATATGGA	0.999 ± 0.012
TTAATATTAC	1.01 ± 0.014
TTAATATTTG	1.01 ± 0.041
TTAATCGGTT	1.005 ± 0.01
TTAATGCGCA	1 ± 0.019
TTAATGCTGG	1 ± 0.033
TTAATGGCGA	0.986 ± 0.033
TTAATGGGGG	1.06 ± 0.25
TTAATGTGCG	1.01 ± 0.023
TTAATGTGGG	0.995 ± 0.014
TTAATTATCA	0.998 ± 0.018
TTAATTCCGT	1.02 ± 0.032
TTAATTCTGG	0.9976 ± 0.0034
TTAATTGACA	1.064 ± 0.0092
TTAATTGAGT	1.012 ± 0.0018
TTAATTGATG	1.01 ± 0.014
TTAATTGGTG	1.021 ± 0.009
TTAATTTACA	1.09 ± 0.044
TTAATTTACT	1.08 ± 0.043

Sequence	switch fluorescence ratio
TTAATTTAG	0.985 ± 0.027
TTAATTTCAG	1.01 ± 0.023
TTAATTTCTA	0.9901 ± 0.0058
TTACAAGAGG	0.989 ± 0.024
TTACACGGGG	0.969 ± 0.036
TTACAGGACG	1.2 ± 0.22
TTACAGGGCT	1.037 ± 0.0038
TTACAGGGGG	1.03 ± 0.057
TTACATAATT	1.02 ± 0.044
TTACATCTGG	0.9842 ± 0.007
TTACATGTAG	1.04 ± 0.013
TTACCAAAAC	1.41 ± 0.54
TTACCAGAGT	1.02 ± 0.011
TTACCATTCG	1.02 ± 0.019
TTACCGTGTT	1.08 ± 0.037
TTACGACGCA	3.67 ± 0.76
TTACGACTGT	1.004 ± 0.0014
TTACGAGATT	1.01 ± 0.068
TTACGAGTGG	1.02 ± 0.025
TTACGATTTT	0.993 ± 0.039
TTACGCATCA	1.14 ± 0.021
TTACGCCCTT	1.11 ± 0.08
TTACGGAACT	1.164 ± 0.0041
TTACGGAAGT	1.11 ± 0.13
TTACGGAAT	1.1 ± 0.14

Sequence	switch fluorescence ratio
TTACGGACGA	1.317 ± 0.0043
TTACGGCGCT	1.06 ± 0.062
TTACGGGGAT	1.04 ± 0.016
TTACGGGGGG	1.02 ± 0.052
TTACGGGTCC	0.961 ± 0.012
TTACGGTCCC	1.19 ± 0.24
TTACGGTCTA	1.03 ± 0.013
TTACGGTGTC	1.02 ± 0.025
TTACGGTGTT	1.1 ± 0.099
TTACGTAATA	1.34 ± 0.023
TTACGTGGGA	1.02 ± 0.026
TTACGTGTCG	1.01 ± 0.068
TTACTATTTG	0.961 ± 0.052
TTACTCATTT	1.017 ± 0.0018
TTACTGGAAC	1.06 ± 0.021
TTACTGGGGC	1.03 ± 0.03
TTACTTCTGG	0.9796 ± 0.0017
TTACTTGACT	1.116 ± 0.0085
TTACTTGGGT	1.02 ± 0.052
TTACTTTGAG	1.02 ± 0.048
TTACTTTGGA	1.03 ± 0.023
TTACTTTTTT	1.02 ± 0.033
TTAGAAAGCA	1 ± 0.033
TTAGAAAGGA	1.01 ± 0.025
TTAGAAGATT	1 ± 0.044

Sequence	switch fluorescence ratio
TTAGAAGGTG	1.16 ± 0.078
TTAGAAGGTT	1 ± 0.026
TTAGACCGAA	1.031 ± 0.0088
TTAGACGATT	0.998 ± 0.025
TTAGACGCTT	1 ± 0.011
TTAGACGGC	0.978 ± 0.097
TTAGAGAAAA	1.03 ± 0.079
TTAGAGGGTT	1.01 ± 0.031
TTAGAGTAGT	0.988 ± 0.013
TTAGAGTATG	1.0206 ± 0.0007
TTAGAGTGGA	0.968 ± 0.024
TTAGATTGGT	0.99 ± 0.033
TTAGATTTTT	1.002 ± 0.0087
TTAGCAAAAA	1.1 ± 0.075
TTAGCATATT	1.01 ± 0.021
TTAGCCGCGG	0.997 ± 0.016
TTAGCCTCTT	0.996 ± 0.032
TTAGCGAGGC	2.13 ± 1.2
TTAGCGGGA	1 ± 0.023
TTAGCTACTG	1.03 ± 0.056
TTAGCTCATT	1 ± 0.02
TTAGCTTGAG	1.01 ± 0.013
TTAGCTTGCT	1.019 ± 0.0035
TTAGGAAGTG	0.999 ± 0.017
TTAGGAATGG	1.005 ± 0.0015

Sequence	switch fluorescence ratio
TTAGGACTAG	0.9698 ± 0.0048
TTAGGACTT	1.02 ± 0.073
TTAGGAGGGT	0.965 ± 0.037
TTAGGATAGT	0.998 ± 0.027
TTAGGATCGC	1.02 ± 0.057
TTAGGATGGC	1.2 ± 0.28
TTAGGATGTT	1.0069 ± 0.00069
TTAGGCCGGG	0.998 ± 0.041
TTAGGCGTTC	0.9892 ± 0.0096
TTAGGCTTGT	0.996 ± 0.02
TTAGGGACGT	1.01 ± 0.026
TTAGGGATTG	1 ± 0.03
TTAGGGCATT	1.11 ± 0.2
TTAGGGGAGC	0.976 ± 0.021
TTAGGGGAGT	1.02 ± 0.066
TTAGGGGCTT	1.02 ± 0.033
TTAGGGGGCC	1.07 ± 0.035
TTAGGGGGT	0.976 ± 0.059
TTAGGGGTAT	0.996 ± 0.05
TTAGGGGTGT	1.01 ± 0.022
TTAGGGTGTA	1.01 ± 0.046
TTAGGGTTGG	0.99 ± 0.034
TTAGGTGTCC	1.08 ± 0.057
TTAGGTGTCT	0.998 ± 0.071
TTAGGTTACT	1.028 ± 0.0039
